This passage reports Km and Vmax results from patent US7825096B2, “O6-alkylguanine-DNA alkyltransferase inactivators and beta-glucuronidase cleavable prodrugs” (The United States of America as represented by the …, priority 2004, dated 2010).

Holding throughout (assay type): biochemical
Substrate in data set [1]: O=C(Nc1nc(OCc2ccccc2)c2ncn([C@H]3C[C@H](O)[C@@H](CO)O3)c2n1)OCc1ccc(O[C@@H]2O[C@H](C(=O)O)[C@@H](O)[C@H](O)[C@H]2O)c([N+](=O)[O-])c1
Kind of data set: Enzymatic hydrolysis of prodrugs by E. coli β-glucuronidase in MOPS buffer. Conditions: other: E. coli β-glucuronidase, 37° C., pH 7.0. How it is done:
(§1) The enzymatic hydrolysis of the prodrugs was investigated with both E. coli and bovine liver β-glucuronidase in MOPS buffer at pH 7.0. Prodrugs and p-nitrobenzyl alcohol (HPLC internal standard) were dissolved in the MOPS buffer (pH 7.0) at 37° C. Enzymatic cleavage was initiated by adding 0.2 Fishman units of E. coli β-glucuronidase (Sigma type IX-A) (42.8 units/mg of protein) or 10 Fishman units of bovine liver β-glucuronidase (Sigma type B-10) (10.2 units/mg of protein) to the incubation buffer. Aliquots (100 μL) of the reaction mixture were withdrawn at various times and were mixed with 100 μL of acetonitrile/0.1 M TEAA (6:4) to quench the enzymatic reaction. Prodrug and product concentrations were determined by HPLC. For determination of enzyme kinetic parameters, prodrug solutions at concentrations between 5 and 300 μM were incubated with a fixed amount of enzyme. Aliquots were withdrawn at time intervals varying from 1 to 20 min and the reactions were quenched as described above. Initial reaction velocities were determined at each substrate concentration. Non-linear regression methods were used to determine KM and Vmax values. Data were processed with Prism 3.0 software.

Substrate in data set [2]: O=C(Nc1nc(OCc2ccccc2)c2nc[nH]c2n1)OCc1ccc(O[C@@H]2O[C@H](C(=O)O)[C@@H](O)[C@H](O)[C@H]2O)c([N+](=O)[O-])c1
The description is as above. The note with it: other: E. coli β-glucuronidase, 37° C., pH 7.0. How it is done:
as §1

Substrate in data set [3]: O=C(Nc1nc(OCc2ccccc2)c2ncn([C@H]3C[C@H](O)[C@@H](CO)O3)c2n1)OCc1ccc(O[C@@H]2O[C@H](C(=O)O)[C@@H](O)[C@H](O)[C@H]2O)c([N+](=O)[O-])c1
Nature of the data set: Enzymatic hydrolysis of prodrugs by bovine liver β-glucuronidase in MOPS buffer. Conditions: other: bovine liver β-glucuronidase, 37° C., pH 7.0. How it is done:
as §1

Substrate in data set [4]: O=C(Nc1nc(OCc2ccccc2)c2nc[nH]c2n1)OCc1ccc(O[C@@H]2O[C@H](C(=O)O)[C@@H](O)[C@H](O)[C@H]2O)c([N+](=O)[O-])c1
Described as above. Conditions: other: bovine liver β-glucuronidase, 37° C., pH 7.0. How it is done:
as §1

B1: E. coli β-glucuronidase (Escherichia coli K-12) (protein)
chain: MLRPVETPTREIKKLDGLWAFSLDRENCGIDQRWWESALQESRAIAVPGSFNDQFADADIRNYAGNVWYQREVFIPKGWAGQRIVLRFDAVTHYGKVWVNNQEVMEHQGGYTPFEADVTPYVIAGKSVRITVCVNNELNWQTIPPGMVITDENGKKKQSYFHDFFNYAGIHRSVMLYTTPNTWVDDITVVTHVAQDCNHASVDWQVVANGDVSVELRDADQQVVATGQGTSGTLQVVNPHLWQPGEGYLYELCVTAKSQTECDIYPLRVGIRSVAVKGEQFLINHKPFYFTGFGRHEDADLRGKGFDNVLMVHDHALMDWIGANSYRTSHYPYAEEMLDWADEHGIVVIDETAAVGFNLSLGIGFEAGNKPKELYSEEAVNGETQQAHLQAIKELIARDKNHPSVVMWSIANEPDTRPQGAREYFAPLAEATRKLDPTRPITCVNVMFCDAHTDTISDLFDVLCLNRYYGWYVQSGDLETAEKVLEKELLAWQEKLHQPIIITEYGVDTLAGLHSMYTDMWSEEYQCAWLDMYHRVFDRVSAVVGEQVWNFADFATSQGILRVGGNKKGIFTRDRKPKSAAFLLQKRWTGMNFGEKPQQGGKQ
notes: purchased Sigma type IX-A
A word on the Km: it is the concentration of substrate that gives half-maximal velocity. Broadly, the Vmax is the rate approached at saturating substrate. On to B1, for which the Km in data set [1] turned out to be 41.1 µM; in data set [2], 17.0 µM. Moreover, the figures for the Vmax in data set [1] and in data set [2] were 677000 µmol/mg/h and 466000 µmol/mg/h, respectively.

B2: bovine liver β-glucuronidase (Bos taurus) (protein)
chain: MLRGSAGAWAVLGPLLWGCGLSLLQGGMLYPRESRSRERKELDGLWSFRADFSDNRRQGFEQQWYRAPLRESGPTLDMPVPSSFNDVGQDGQLRSFVGWVWYEREITLPQRWTEDLGTRVVLRIGSAHYYAIVWVNGVHVLEHEGGHLPFEADISKLVQSGPLSSCRITIAINNTLSPHTLPPGTILYKTDPSMYPKGYFVQNTKFDFFNYAGLHRSVLLYTTPTTYIDDITVTTDMDQDIGLVNYQIIVQGSDHFQVDVSLLDEEGKVMAKGAGAEGQLQVPSAHLWWPYLMHEHPAYLYSLEVKLTAQTAVGPVSDFYTLPVGIRTVAVTKSQFLINGKPFYFRGVNKHEDADIRGKGFDWPLLVKDFNLLRWLGANAFRTSHYPYSEEVLQLCDRYGIVVIDESPGVGIVLVESFSNVSLQHHLEVMEEMIRRDKNHPAVVMWSLANEPASFLKPAGYYFKTLIAHTKALDPSRPVTFVTNTNYEADLGAPYVDIICVNSYYSWYHDYGHMEVIQLQLATQFENWYKAYQKPMIQSEYGADAIEGFHEDPPLMFSEEYQKGLLQQYHVVLDQKRKEYVVGELIWNFADFMTNQSPVRMIGNRKGIFTRQRQPKSAAFLLRERYWKLANETRYQRSAVTSQCVGSGLFTV
notes: bovine liver β-glucuronidase (Sigma type B-10) (10.2 units/mg of protein); purchased Sigma type B-10; host or cells: bovine liver
B2: the Km in data set [3] is 362 µM; in data set [4], 244 µM.
